Values of other authors, collected in patent US7662384B2, “Use of anti-α5β1 antibodies to inhibit cancer cell proliferation” (Facet Biotech Corporation, priority 2004, dated 2010).
Read-outs that look alike come from different tables or passages of the source.

Key:
[1] = system: angiogenesis; conditions: monkey eye model; cited from earlier work
[2] = system: angiogenesis; conditions: rabbit eye model; cited from earlier work

B1: F200: Fab fragment derived from M200 (antibody, chains of the INN, looked up, V domains shown)
VH: QVQLKESGPGLVAPSQSLSITCTISGFSLTDYGVHWVRQPPGKGLEWLVVIWSDGSSTYNSALKSRMTIRKDNSKSQVFLIMNSLQTDDSAMYYCARHGTYYGMTTTGDALDYWGQGTSVTVSS
VL: QIVLTQSPAIMSASLGERVTMTCTASSSVSSNYLHWYQQKPGSAPNLWIYSTSNLASGVPARFSGSGSGTSYSLTISSMEAEDAATYYCHQYLRSPPTFGGGTKLEIK
modifications: Fab
notes: Fab fragment derived from M200
in vivo anti-angiogenic efficacy [1]: in vivo anti-angiogenic efficacy | in vivo anti-angiogenic efficacy [2]: in vivo anti-angiogenic efficacy
